B1: ADP-ribosylation factor 6 (Homo sapiens), P62330 (parent)
chain: MGKVLSKIFGNKEMRILMLGLDAAGKTTILYKLKLGQSVTTIPTVGFNVETVTYKNVKFNVWDVGGQDKIRPLWRHYYTGTQGLIFVVDCADRDRIDEARQELHRIINDREMRDAIILIFANKQDLPDAMKPHEIQEKLGLTRIRDRNWYVQPSCATSGDGLYEGLTWLTSNYKS
B2: Cytohesin-3 (Homo sapiens), O43739-2 (parent)
chain: MDEDGGGEGGGVPEDLSLEEREELLDIRRRKKELIDDIERLKYEIAEVMTEIDNLTSVEESKTTQRNKQIAMGRKKFNMDPKKGIQFLIENDLLQSSPEDVAQFLYKGEGLNKTVIGDYLGERDEFNIKVLQAFVELHEFADLNLVQALRQFLWSFRLPGEAQKIDRMMEAFASRYCLCNPGVFQSTDTCYVLSFAIIMLNTSLHNHNVRDKPTAERFIAMNRGINEGGDLPEELLRNLYESIKNEPFKIPEDDGNDLTHTFFNPDREGWLLKLGGRVKTWKRRWFILTDNCLYYFEYTTDKEPRGIIPLENLSIREVEDPRKPNCFELYNPSHKGQVIKACKTEADGRVVEGNHVVYRISAPSPEEKEEWMKSIKASISRDPFYDMLATRKRRIANKK

Tests used:
CYTH3, O43739-2 = variants of: B1; settings: with CYTH3, O43739-2
CYTH1, Q15438-2 = variants of: B1; settings: with CYTH1, Q15438-2
CYTH1, Q15438-2, sequence (Q15438 other isoform, or with tags, fused parts or gaps): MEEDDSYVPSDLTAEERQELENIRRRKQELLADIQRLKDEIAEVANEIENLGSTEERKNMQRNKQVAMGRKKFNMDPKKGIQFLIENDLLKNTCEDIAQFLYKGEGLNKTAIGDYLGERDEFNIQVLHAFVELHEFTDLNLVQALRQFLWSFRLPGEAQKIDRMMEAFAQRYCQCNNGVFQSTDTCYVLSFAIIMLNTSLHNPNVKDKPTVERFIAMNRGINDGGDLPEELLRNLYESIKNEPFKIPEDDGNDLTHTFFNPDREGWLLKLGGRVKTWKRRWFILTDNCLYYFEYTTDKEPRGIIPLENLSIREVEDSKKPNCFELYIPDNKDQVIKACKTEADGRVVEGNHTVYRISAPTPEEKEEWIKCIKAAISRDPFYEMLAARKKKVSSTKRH

CYTH2, Q99418-2 = variants of: B1; settings: with CYTH2, Q99418-2
CYTH2, Q99418-2, sequence (Q99418 other isoform, or with tags, fused parts or gaps): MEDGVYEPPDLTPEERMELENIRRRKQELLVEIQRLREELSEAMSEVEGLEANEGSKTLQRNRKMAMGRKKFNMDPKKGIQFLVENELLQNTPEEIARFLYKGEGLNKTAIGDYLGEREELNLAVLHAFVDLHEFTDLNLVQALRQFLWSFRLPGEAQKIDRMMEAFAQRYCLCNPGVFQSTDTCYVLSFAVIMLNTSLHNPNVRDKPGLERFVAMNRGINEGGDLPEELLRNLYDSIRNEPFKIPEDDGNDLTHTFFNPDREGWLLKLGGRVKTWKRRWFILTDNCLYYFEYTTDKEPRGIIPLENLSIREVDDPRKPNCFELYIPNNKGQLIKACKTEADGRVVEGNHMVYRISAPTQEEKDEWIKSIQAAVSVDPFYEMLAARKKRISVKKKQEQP

arf6_human ARF6, P62330 = variants of: B2; settings: with arf6_human ARF6, P62330

effect of a mutation on the interaction (CYTH3, O43739-2)	effect of a mutation on the interaction (CYTH1, Q15438-2)	effect of a mutation on the interaction (CYTH2, Q99418-2)	effect of a mutation on the interaction (arf6_human ARF6, P62330)	Variant
with no effect	with no effect	with no effect	–	Q67L
–	–	–	decreasing interaction strength	MDEDGGGEGGGVPEDLSLEEREELLDIRRRKKELIDDIERLKYEIAEVMTEIDNLTSVEESKTTQRNKQIAMGRKKFNMDPKKGIQFLIENDLLQSSPEDVAQFLYKGEGLNKTVIGDYLGERDEFNIKVLQAFVELHEFADLNLVQALRQFLWSFRLPGEAQKIDRMMEAFASRYCLCNPGVFQSTDTCYVLSFAIIMLNTSLHNHNVRDKPTAERFIAMNRGINEGGDLPEELLRNLYESIKNEPFKIPEDDGNDLTHTFFNPDREGWLLKLGGRVKTWKRRWFILTDNCLYYFEYTTDKEPRGIIPLENLSIREVEDPRKPNCFELYNPSHKGQVIKACKTEADGRVVEGNHVVYRISAPSPEEKEEWMKSIKASISRDPFYDMLATRARRIANKK [K392A]
–	–	–	decreasing interaction strength	MDEDGGGEGGGVPEDLSLEEREELLDIRRRKKELIDDIERLKYEIAEVMTEIDNLTSVEESKTTQRNKQIAMGRKKFNMDPKKGIQFLIENDLLQSSPEDVAQFLYKGEGLNKTVIGDYLGERDEFNIKVLQAFVELHEFADLNLVQALRQFLWSFRLPGEAQKIDRMMEAFASRYCLCNPGVFQSTDTCYVLSFAIIMLNTSLHNHNVRDKPTAERFIAMNRGINEGGDLPEELLRNLYESIKNEPFKIPEDDGNDLTHTFFNPDREGWLLKLGGRVKTWKRRWFILTDNCLYYFEYTTDKEPRGIIPLENLSIREVEDPRKPNCFELYNPSHKGQVIKACKTEADGRVVEGNHVVYRISAPSPEEKEEWMKSIKASISRDPFYDMAATRKRRIANKK [L388A]
